Measurements from article PMC11391049 (Life Science Alliance, 2024).

T1: β5 precursor (β5-subunit with unprocessed β5-propeptide) (S. cerevisiae, UniProt P30656 1-287)
T1 construct: β5/Pre2, S. cerevisiae, unprocessed precursor with the whole 75-residue propeptide (all but -65, -64 and -13 resolved); numbers count on: the mature subunit (Thr1 = +1, propeptide residues negative); also called Pre2; precursor form of the β5-subunit
T1 sequence (looked up): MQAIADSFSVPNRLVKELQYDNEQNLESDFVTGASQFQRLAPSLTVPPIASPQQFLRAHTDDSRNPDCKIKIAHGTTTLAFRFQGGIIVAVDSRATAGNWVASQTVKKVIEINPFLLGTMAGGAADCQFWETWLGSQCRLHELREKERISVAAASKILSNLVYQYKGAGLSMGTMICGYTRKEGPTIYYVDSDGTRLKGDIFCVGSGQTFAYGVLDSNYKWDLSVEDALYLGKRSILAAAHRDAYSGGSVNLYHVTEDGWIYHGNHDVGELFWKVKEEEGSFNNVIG

T2: β4-S142F (pre1-1) with FLAG-6xHis-tag (S. cerevisiae, UniProt P22141 1-198, S142F)
T2 construct: Pre1/β4, S. cerevisiae, mutant version of the pre1-1 strain; also called pre1-1-FH; Pre1/β4 (β4-S142F)
T2 sequence: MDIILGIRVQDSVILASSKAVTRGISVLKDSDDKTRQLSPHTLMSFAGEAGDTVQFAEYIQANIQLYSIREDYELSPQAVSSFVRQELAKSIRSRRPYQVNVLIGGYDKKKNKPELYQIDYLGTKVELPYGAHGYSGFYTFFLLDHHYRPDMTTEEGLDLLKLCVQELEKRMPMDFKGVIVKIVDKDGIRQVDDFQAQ

B1: β7-subunit (natural protein, S. cerevisiae, UniProt P30657 34-266, looked up)
chain: TQQPIVTGTSVISMKYDNGVIIAADNLGSYGSLLRFNGVERLIPVGDNTVVGISGDISDMQHIERLLKDLVTENAYDNPLADAEEALEPSYIFEYLATVMYQRRSKMNPLWNAIIVAGVQSNGDQFLRYVNLLGVTYSSPTLATGFGAHMANPLLRKVVDRESDIPKTTVQVAEEAIVNAMRVLYYRDARSSRNFSLAIIDKNTGLTFKKNLQVENMKWDFAKDIKGYGTQKI
notes: 20S proteasome subunit β7, S. cerevisiae, without its 33-residue propeptide (β7pro); the last 10 residues of the C-terminal extension are not resolved there
B2: α6-subunit (natural protein, S. cerevisiae, UniProt P40302 1-234, looked up)
chain: MFRNNYDGDTVTFSPTGRLFQVEYALEAIKQGSVTVGLRSNTHAVLVALKRNADELSSYQKKIIKCDEHMGLSLAGLAPDARVLSNYLRQQCNYSSLVFNRKLAVERAGHLLCDKAQKNTQSYGGRPYGVGLLIIGYDKSGAHLLEFQPSGNVTELYGTAIGARSQGAKTYLERTLDTFIKIDGNPDELIKAGVEAISQSLRDESLTVDNLSIAIVGKDTPFTIYDGEAVAKYI
notes: 20S proteasome subunit α6, S. cerevisiae
B3: Ump1 (natural protein, S. cerevisiae, UniProt P38293 1-148, looked up)
chain: MNIVPQDTFKSQVSTDQDKSVLSSAVPSLPDTLRQQEGGAVPLSTQLNDRHPLESTLKNWETTQRQRQMEQYRQIFGIAEPMKRTMEMEIVNRTDFNPLSTNGSIHRDILLNKECSIDWEDVYPGTGLQASTMVGDDVHSKIEKQLGI
notes: residues 126-131 not resolved; two Ump1 molecules are encased in one late-PC, one in each half; also called ScUmp1; Ump1 chaperone
B4: α5-subunit (natural protein, S. cerevisiae, UniProt P32379 1-260, looked up)
chain: MFLTRSEYDRGVSTFSPEGRLFQVEYSLEAIKLGSTAIGIATKEGVVLGVEKRATSPLLESDSIEKIVEIDRHIGCAMSGLTADARSMIEHARTAAVTHNLYYDEDINVESLTQSVCDLALRFGEGASGEERLMSRPFGVALLIAGHDADDGYQLFHAEPSGTFYRYNAKAIGSGSEGAQAELLNEWHSSLTLKEAELLVLKILKQVMEEKLDENNAQLSCITKQDGFKIYDNEKTAELIKELKEKEAAESPEEADVEMS
notes: 20S proteasome subunit α5, S. cerevisiae
B5: β6-subunit (natural protein, S. cerevisiae, UniProt P23724 20-241, looked up)
chain: QFNPYGDNGGTILGIAGEDFAVLAGDTRNITDYSINSRYEPKVFDCGDNIVMSANGFAADGDALVKRFKNSVKWYHFDHNDKKLSINSAARNIQHLLYGKRFFPYYVHTIIAGLDEDGKGAVYSFDPVGSYEREQCRAGGAAASLIMPFLDNQVNFKNQYEPGTNGKVKKPLKYLSVEEVIKLVRDSFTSATERHIQVGDGLEILIVTKDGVRKEFYELKRD
notes: 20S proteasome subunit β6, S. cerevisiae, without its 19-residue propeptide (β6pro)
B6: β2-subunit, autocatalytically processed (natural protein, S. cerevisiae, UniProt P25043 30-261, looked up)
chain: TTIVGVKFNNGVVIAADTRSTQGPIVADKNCAKLHRISPKIWCAGAGTAADTEAVTQLIGSNIELHSLYTSREPRVVSALQMLKQHLFKYQGHIGAYLIVAGVDPTGSHLFSIHAHGSTDVGYYLSLGSGSLAAMAVLESHWKQDLTKEEAIKLASDAIQAGIWNDLGSGSNVDVCVMEIGKDAEYLRNYLTPNVREEKQKSYKFPRGTTAVLKESIVNICDIQEEQVDITA
notes: β2/Pup1, S. cerevisiae, mature subunit beginning at the active site Thr1 after cleavage of the Gly-1/Thr1 bond (29-residue propeptide removed); numbers count on: the mature subunit; also called Pup1; mature β2
B7: β1-subunit, autocatalytically cleaved (mature, in pre1-1CP) (natural protein, S. cerevisiae, UniProt P38624 20-215, looked up)
chain: TSIMAVTFKDGVILGADSRTTTGAYIANRVTDKLTRVHDKIWCCRSGSAADTQAIADIVQYHLELYTSQYGTPSTETAASVFKELCYENKDNLTAGIIVAGYDDKNKGEVYTIPLGGSVHKLPYAIAGSGSTFIYGYCDKNFRENMSKEETVDFIKHSLSQAIKWDGSSGGVIRMVVLTAAGVERLIFYPDEYEQL
notes: β1/Pre3, S. cerevisiae, mature subunit beginning at Thr1; numbers count on: the mature subunit; also called Pre3

Tests used:
[1] = target: T1, β5 precursor (β5-subunit with …); assay: cryo-EM structure; late-PC (doubly capped with Pba1-Pba2) isolated via FLAG-6xHis on β4 from pre1-1 cells; 2.1 Å with C2 symmetry, 2.3 Å without; sub-populations late-PC1 (2.7 Å) and late-PC2 (2.3 Å); details: both partners purified
[2] = target: T3, Blm10 (S. cerevisiae, UniProt P43583 1-2143); assay: cryo-EM structure; native pre1-1CP-Blm10 complex copurified via FLAG-6xHis on β4; 2.4 Å, no symmetry applied; details: both partners purified
T3 construct: also called Blm10 chaperone

[3] = target: T2, β4-S142F (pre1-1) with FLAG-6xHis-tag; assay: affinity purification with mass spectrometry; tandem affinity purification (FLAG, 6xHis on β4) from pre1-1 cells overexpressing Pba1-Pba2, separation by native PAGE, bands evaluated by MS; details: partners not purified
[4] = target: B1; assay: cryo-EM structure; late-PC (doubly capped with Pba1-Pba2) isolated via FLAG-6xHis on β4 from pre1-1 cells; 2.1 Å with C2 symmetry, 2.3 Å without; sub-populations late-PC1 (2.7 Å) and late-PC2 (2.3 Å); details: both partners purified
[5] = target: B1; assay: cryo-EM structure; uncapped, fully matured 20S pre1-1CP isolated via FLAG-6xHis on β4; 2.0 Å with C2 symmetry; details: both partners purified

T3 sequence (P43583 whole entry): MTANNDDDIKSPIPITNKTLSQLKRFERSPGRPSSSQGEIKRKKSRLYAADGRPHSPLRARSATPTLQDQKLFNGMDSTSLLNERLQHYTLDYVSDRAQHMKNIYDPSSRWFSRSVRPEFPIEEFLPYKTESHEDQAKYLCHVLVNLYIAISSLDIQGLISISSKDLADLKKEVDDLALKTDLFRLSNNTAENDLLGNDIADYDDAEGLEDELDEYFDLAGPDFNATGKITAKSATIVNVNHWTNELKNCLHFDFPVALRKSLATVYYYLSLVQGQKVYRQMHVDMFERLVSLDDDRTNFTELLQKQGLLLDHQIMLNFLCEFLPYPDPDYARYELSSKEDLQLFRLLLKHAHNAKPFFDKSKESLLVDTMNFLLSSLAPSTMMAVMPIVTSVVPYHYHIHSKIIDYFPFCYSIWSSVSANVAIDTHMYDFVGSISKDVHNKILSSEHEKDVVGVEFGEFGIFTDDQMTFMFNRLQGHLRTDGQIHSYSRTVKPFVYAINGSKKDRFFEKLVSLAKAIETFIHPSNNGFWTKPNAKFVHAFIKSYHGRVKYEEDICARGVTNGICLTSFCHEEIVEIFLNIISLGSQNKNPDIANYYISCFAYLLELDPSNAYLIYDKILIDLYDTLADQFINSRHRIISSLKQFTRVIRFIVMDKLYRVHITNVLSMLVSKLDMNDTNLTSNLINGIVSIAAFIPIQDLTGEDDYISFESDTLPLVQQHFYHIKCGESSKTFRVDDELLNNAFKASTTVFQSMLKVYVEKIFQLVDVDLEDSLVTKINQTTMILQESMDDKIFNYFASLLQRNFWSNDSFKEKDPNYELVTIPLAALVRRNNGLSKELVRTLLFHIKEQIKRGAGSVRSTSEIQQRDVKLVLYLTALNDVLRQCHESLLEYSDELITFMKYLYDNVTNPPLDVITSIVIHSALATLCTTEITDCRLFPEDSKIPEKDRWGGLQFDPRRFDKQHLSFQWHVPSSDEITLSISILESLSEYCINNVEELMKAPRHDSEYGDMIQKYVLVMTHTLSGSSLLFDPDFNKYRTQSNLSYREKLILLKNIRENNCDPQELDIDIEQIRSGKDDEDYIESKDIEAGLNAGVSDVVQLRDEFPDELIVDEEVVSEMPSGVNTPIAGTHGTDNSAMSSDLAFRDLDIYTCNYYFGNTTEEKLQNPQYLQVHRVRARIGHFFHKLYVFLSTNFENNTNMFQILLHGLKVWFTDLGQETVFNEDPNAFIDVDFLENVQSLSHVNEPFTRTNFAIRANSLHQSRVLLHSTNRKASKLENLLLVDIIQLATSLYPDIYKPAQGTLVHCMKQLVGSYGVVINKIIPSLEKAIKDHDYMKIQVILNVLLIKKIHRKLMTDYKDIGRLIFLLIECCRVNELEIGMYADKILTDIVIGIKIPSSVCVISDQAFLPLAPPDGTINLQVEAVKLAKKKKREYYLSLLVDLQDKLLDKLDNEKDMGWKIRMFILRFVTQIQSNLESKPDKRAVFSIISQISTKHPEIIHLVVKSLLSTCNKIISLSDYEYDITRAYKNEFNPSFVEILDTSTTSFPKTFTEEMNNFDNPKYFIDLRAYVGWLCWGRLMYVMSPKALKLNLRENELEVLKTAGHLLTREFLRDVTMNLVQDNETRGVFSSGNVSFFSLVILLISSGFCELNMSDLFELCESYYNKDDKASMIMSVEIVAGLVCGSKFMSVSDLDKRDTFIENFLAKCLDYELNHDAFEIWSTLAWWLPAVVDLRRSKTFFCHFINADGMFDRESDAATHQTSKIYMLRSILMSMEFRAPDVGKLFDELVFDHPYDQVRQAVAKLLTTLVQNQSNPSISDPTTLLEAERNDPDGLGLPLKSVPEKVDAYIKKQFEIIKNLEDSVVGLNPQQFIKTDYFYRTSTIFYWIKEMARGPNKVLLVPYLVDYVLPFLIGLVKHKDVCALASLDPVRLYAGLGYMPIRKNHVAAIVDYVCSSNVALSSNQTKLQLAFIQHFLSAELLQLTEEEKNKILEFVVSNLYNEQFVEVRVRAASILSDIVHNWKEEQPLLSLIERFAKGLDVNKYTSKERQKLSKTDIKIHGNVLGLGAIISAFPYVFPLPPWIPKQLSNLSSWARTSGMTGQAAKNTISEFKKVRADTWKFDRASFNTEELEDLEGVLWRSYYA

Binder: B1
binding result [1]: binds

Binder: B2
binding result [2]: binds

Binder: B3
binding result [3]: binds
binding result [4]: binds

Binder: B4
binding result [2]: binds

Binder: B5
binding result [5]: binds

Binder: B6
binding result [5]: binds

Binder: B7
binding result [5]: binds
